B1: Hairpin Ribozyme (parent)
chain: GUCCUCUUUCACGUGCGCGUGAAAGAGAGAAGUGAACCAGAGAAACACACGUUGUGGUAUAUUACCUGGUA

Variants of: B1
Assay: self-cleavage, relative activity (ratio to wild type); higher = more cleavage; co-transcriptional

| Variant | self-cleavage |
| --- | --- |
| A44C C65A | 0.213 |
| C46A G68A | 0.12 |
| C46A G68C | 0.277 |
| A43G G54C | 0.168 |
| A43G G54U | 0.156 |
| A45G G57C | 0.0828 |
| A44U U60A | 0.239 |
| A45G A64U | 0.176 |
| A43U C50G | 0.107 |
| A43U C50U | 0.116 |
| A47G G56C | 0.132 |
| A47G G56A | 0.103 |
| A45U U63G | 0.0513 |
| A45U U63A | 0.148 |
| A45G A47G | 0.101 |
| A44G A61U | 0.189 |
| A44G A61C | 0.0999 |
| A44G A61G | 0.152 |
| A45C C46G | 0.152 |
| A44U C46A | 0.116 |
| A45U C66G | 0.236 |
| A43U U55A | 0.129 |
| A44G G51A | 0.123 |
| A44G G51C | 0.238 |

| Variant | self-cleavage |
| --- | --- |
| A44G G51U | 0.175 |
| A47C U55C | 0.233 |
| A44U G57A | 0.0753 |
| C46G U70G | 0.149 |
| C46G U70A | 0.161 |
| C46G C66A | 0.253 |
| C46G C66U | 0.215 |
| C46G C66G | 0.162 |
| A45U C65A | 0.131 |
| C46A G51C | 0.0397 |
| A45C G69A | 0.116 |
| A45U U53C | 0.161 |
| A45C U70C | 0.241 |
| A45C U70A | 0.222 |
| A43U A64U | 0.266 |
| A43U A64C | 0.161 |
| A44G G69A | 0.0936 |
| C46U A59C | 0.32 |
| A44C C50A | 0.0943 |
| A44U C65G | 0.178 |
| A44U C65A | 0.184 |
| A44U U58G | 0.136 |
| A43G U52C | 0.064 |
| A45U U60C | 0.112 |

| Variant | self-cleavage |
| --- | --- |
| A44C U53C | 0.108 |
| A44C U53A | 0.186 |
| C46U U67G | 0.171 |
| A44U U62A | 0.26 |
| C46A A59G | 0.107 |
| A45C G56U | 0.203 |
| A44U G69A | 0.15 |
| A44U G69U | 0.299 |
| A44C A49U | 0.0612 |
| A43G U70G | 0.288 |
| A43G U70A | 0.225 |
| A43G U70C | 0.19 |
| C46U U63A | 0.0217 |
| C46U U63G | 0.221 |
| A44C A45G | 0.208 |
| A45G G51C | 0.176 |
| A43U U70C | 0.159 |
| C46G A71C | 0.211 |
| A47G U58G | 0.119 |
| A44U C48U | 0.15 |
| A45U C50A | 0.145 |
| A44G C48A | 0.102 |
| A43U U67C | 0.109 |
| A44U A59C | 0.173 |

| Variant | self-cleavage |
| --- | --- |
| C46U U52A | 0.179 |
| C46A A61C | 0.311 |
| C46G A61C | 0.154 |
| A43U C46G | 0.0741 |
| A43U C46A | 0.0823 |
| A45G U52A | 0.0852 |
| A45G U52C | 0.0811 |
| A44U G68U | 0.187 |
| A44G A71C | 0.143 |
| C46U A47C | 0.149 |
| C46U A47G | 0.0613 |
| C46U A47U | 0.163 |
| A43G G69C | 0.268 |
| A44C U55C | 0.172 |
| A44C U55G | 0.102 |
| A44U A47G | 0.0154 |
| A45C U58G | 0.3 |
| A45C U58A | 0.309 |
| C46G G68C | 0.13 |
| A45C U52A | 0.0823 |
| C46U C66A | 0.113 |
| C46U C66G | 0.146 |
| A43U A47G | 0.121 |
| A43U A47U | 0.145 |

| Variant | self-cleavage |
| --- | --- |
| A43G G57U | 0.151 |
| A43G G57A | 0.198 |
| A44G U52G | 0.231 |
| A43U A71G | 0.247 |
| A43U A71U | 0.179 |
| A47C U63A | 0.127 |
| A47C U63G | 0.104 |
| A47C U63C | 0.0902 |
| A43U U53C | 0.111 |
| A43U U53G | 0.046 |
| A43U U53A | 0.206 |
| A47U A49C | 0.144 |
| C46U A71G | 0.302 |
| C46U A71C | 0.151 |
| A47G A59U | 0.186 |
| A47G A59C | 0.134 |
| A44U U63G | 0.209 |
| A44C C48U | 0.0439 |
| C46A U55C | 0.324 |
| C46A U55G | 0.253 |
| A44C G68C | 0.0374 |
| C46A C50U | 0.111 |
| A44U U52C | 0.059 |
| A47G U63C | 0.248 |

| Variant | self-cleavage |
| --- | --- |
| A44C U67A | 0.113 |
| A45G A49U | 0.172 |
| A45G A49G | 0.177 |
| A47C C65A | 0.282 |
| A44C A47U | 0.135 |
| A47C A61G | 0.17 |
| A44G A49U | 0.0347 |
| A44U G56U | 0.231 |
| A44C A61G | 0.115 |
| C46A U63A | 0.12 |
| C46A U63C | 0.225 |
| A45G U67C | 0.12 |
| A43G U63G | 0.11 |
| A43G U63C | 0.156 |
| A43G U63A | 0.134 |
| A44U U67G | 0.102 |
| A44U U67A | 0.143 |
| A44U U67C | 0.099 |
| A45U U67C | 0.0755 |
| A47G U52G | 0.259 |
| C46A G56A | 0.167 |
| A45C U63A | 0.0272 |
| A44C U60C | 0.0498 |
| C46U C50A | 0.0957 |

| Variant | self-cleavage |
| --- | --- |
| C46U C50U | 0.227 |
| A45U G69A | 0.111 |
| A44G U70C | 0.262 |
| A45U U58A | 0.132 |
| A45U U58G | 0.123 |
| A45C U67C | 0.128 |
| C46A G57C | 0.156 |
| A45G C65A | 0.349 |
| A45G C65U | 0.146 |
| A45G C65G | 0.168 |
| A44U A71G | 0.293 |
| C46G C65U | 0.107 |
| A43G G68C | 0.0248 |
| A44U U55G | 0.0792 |
| C46U C65U | 0.216 |
| A47C G57A | 0.225 |
| A47G G68A | 0.181 |
| C46U G51C | 0.176 |
| C46U G51U | 0.256 |
| A44C U63C | 0.172 |
| A44C U63A | 0.128 |
| A45C C65G | 0.0639 |
| A45C C65U | 0.102 |

— the RNAGym collection of RNA variant scans (doi:10.7554/elife.80360)
